Reference: article PMC5137418 (Nucleic Acids Research, 2016)

Target: His-RNMT (human, UniProt O43148 1-476)
Assay: pull-down; 2 μg GST or GST-RAM with equimolar His-RNMT and glutathione sepharose; 50 mM Tris–Cl pH 7.5, 250 mM NaCl, 0.03% Brij-35, 1 mM DTT, 4°C, 1 h; Coomassie stain
Conditions: both partners purified

His-RNMT, sequence (O43148 whole entry): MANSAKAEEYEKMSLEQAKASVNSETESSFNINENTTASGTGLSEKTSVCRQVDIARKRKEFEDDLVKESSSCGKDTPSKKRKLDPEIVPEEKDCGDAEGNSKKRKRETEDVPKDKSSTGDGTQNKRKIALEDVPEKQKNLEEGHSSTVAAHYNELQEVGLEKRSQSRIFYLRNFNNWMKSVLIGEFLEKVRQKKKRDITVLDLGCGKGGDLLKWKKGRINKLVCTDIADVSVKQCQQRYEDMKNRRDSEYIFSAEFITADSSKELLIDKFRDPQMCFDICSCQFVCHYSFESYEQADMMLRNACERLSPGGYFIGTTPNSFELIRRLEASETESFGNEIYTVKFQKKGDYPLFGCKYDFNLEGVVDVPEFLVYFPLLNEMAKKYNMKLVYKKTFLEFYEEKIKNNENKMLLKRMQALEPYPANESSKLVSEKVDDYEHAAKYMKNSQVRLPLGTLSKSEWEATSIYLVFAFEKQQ

binding result: binds
Binder: TDTAEAVPKFEEMFASRFTENDKEYQEYLKRPPESPPIVEEWNS (domain or fragment, human, UniProt Q9BTL3 2-45, looked up) [GST-RAM 2–45]
